# B1: Tissue-type plasminogen activator, P00750 (parent)
# chain: MDAMKRGLCCVLLLCGAVFVSPSQEIHARFRRGARSYQVICRDEKTQMIYQQHQSWLRPVLRSNRVEYCWCNSGRAQCHSVPVKSCSEPRCFNGGTCQQALYFSDFVCQCPEGFAGKCCEIDTRATCYEDQGISYRGTWSTAESGAECTNWNSSALAQKPYSGRRPDAIRLGLGNHNYCRNPDRDSKPWCYVFKAGKYSSEFCSTPACSEGNSDCYFGNGSAYRGTHSLTESGASCLPWNSMILIGKVYTAQNPSAQALGLGKHNYCRNPDGDAKPWCHVLKNRRLTWEYCDVPSCSTCGLRQYSQPQFRIKGGLFADIASHPWQAAIFAKHRRSPGERFLCGGILISSCWILSAAHCFQERFPPHHLTVILGRTYRVVPGEEEQKFEVEKYIVHKEFDDDTYDNDIALLQLKSDSSRCAQESSVVRTVCLPPADLQLPDWTECELSGYGKHEALSPFYSERLKEAHVRLYPSSRCTSQHLLNRTVTDNMLCAGDTRSGGPQANLHDACQGDSGGPLVCLNDGRMTLVGIISWGLGCGQKDVPGVYTKVTNYLDWIRDNMRP
# Variants of: B1
# Settings: Homo sapiens, pH 4.5, Thermal, DSC, reversible: yes, structure 1TPK, whole UniProt chain shown
# [1] = 64.3 °C, Citric acid trisodium citrate 0.1 M 0.1 M
# [2] = Citric acid/trisodium citrate 0.1 M/0.1 M/
variant,measurement,setting,value
V280T,ddG of mutation (higher = less stable),[1],1 kcal/mol
same,heat capacity change of unfolding,[1],0.9 kcal/mol/K
same,Tm,[2],60 °C
same,"change of melting temperature, mutant - wild type (higher = more stable)",[2],-4.3 °C
same,unfolding enthalpy (calorimetric),[2],75.1 kcal/mol
V280L,ddG of mutation (higher = less stable),[1],1.9 kcal/mol
same,heat capacity change of unfolding,[1],0.9 kcal/mol/K
same,Tm,[2],55.8 °C
same,"change of melting temperature, mutant - wild type (higher = more stable)",[2],-8.5 °C
same,unfolding enthalpy (calorimetric),[2],70.1 kcal/mol
V280A,Tm,[2],55.5 °C
same,"change of melting temperature, mutant - wild type (higher = more stable)",[2],-8.8 °C
same,unfolding enthalpy (calorimetric),[2],72.5 kcal/mol
V280M,ddG of mutation (higher = less stable),[1],2.2 kcal/mol
same,Tm,[2],54.4 °C
same,"change of melting temperature, mutant - wild type (higher = more stable)",[2],-9.9 °C
same,unfolding enthalpy (calorimetric),[2],67.8 kcal/mol
V280I,ddG of mutation (higher = less stable),[1],-0.3 kcal/mol
same,heat capacity change of unfolding,[1],0.9 kcal/mol/K
same,unfolding enthalpy (calorimetric),[1],67.5 kcal/mol
same,Tm,[2],64.8 °C
same,"change of melting temperature, mutant - wild type (higher = more stable)",[2],0.5 °C
same,unfolding enthalpy (calorimetric),[2],67.5 kcal/mol
V280S,ddG of mutation (higher = less stable),[1],2.4 kcal/mol
same,heat capacity change of unfolding,[1],0.9 kcal/mol/K
same,Tm,[2],52.9 °C
same,"change of melting temperature, mutant - wild type (higher = more stable)",[2],-11.4 °C
same,unfolding enthalpy (calorimetric),[2],63.4 kcal/mol

# Reference: FireProtDB (doi:10.1021/bi00435a062)
